How the values were obtained:
[1] = target: T1, recombinant human ROR1-His (Sino Biological, 13968-H08H) (human, UniProt Q01973 30-406); assay: ELISA, wells coated with human ROR1 protein (sheet: 'human ROR1'; text: ROR1-Fc or ROR1-His), IgG titrated, HRP anti-Fab detection, OD (450-650nm)
T1 construct: extracellular domain; Bought protein; also called ROR1-HIS protein; not shown: His tag
Experimental: (§1) Anti-ROR1 antibody antigen binding affinity was assessed using an ELISA-based solution binding assay. Specifically, a 96-well microtiter plate (Nunc-Immuno Plates), NUNC) was coated for 16 hours at 4° C. with the ROR1 protein described below at a concentration of 1 in PBS solution, and non-specific binding sites were blocked for 2 hours with 3% BSA (bovine serum albumin). Here, the ROR1 protein used was, in the case of human ROR1, the ROR1-Fc or recombinant human ROR1-His (Sino Biological, 13968-H08H) of Embodiment 1. The ROR1-His used in ELISA, as stated in the above sentence, was a protein from the Sino Biological company (13968-H08H), and the ROR1-His of Embodiment 1 or recombinant mouse ROR1 protein was used (Acrobiosystems, RO1-M5221-100 )
(§2) Subsequently, the anti-ROR1 antibodies prepared in Embodiment 3 were added at the concentrations stated in FIG. 2 to a 96-well microtiter plate, and binding capacity was analyzed using ELISA as follows. Specifically, after incubating for 2 hours, the plate was washed 5 times with PBS containing 0.05% Tween 20, then HRP-conjugated Fab multiclonal antibody reagent (Perce, 31414) was diluted to 1:10,000 and placed in the washed microtiter plate. After reacting for 1 hour at 37° C., the ROR1 antibodies bonded to the plate were detected. After the reaction, color development was performed using TMB (Tetramethylbenzidine, Sigma, T0440). The enzymatic reaction was stopped using 0.5 mol/L sulfuric acid, and absorbance at 450 nm and 650 nm was measured (450 nm-650 nm) using a micro plate reader (Molecular Device)

[2] = target: T1, recombinant human ROR1-His (Sino …); assay: BLI (Octet), ROR1-His on Anti-Penta-His or AR2G biosensor, IgG 30 to 0.021 nM, 1:1 fit
Experimental: A 96-well black microplate (greiner bio one) was mounted on a biosensor tray case, and 200 10×KB or DW was added to each of 8 wells. Then Anti Penta His biosensors or 8 AR2G biosensors (ForteBio, USA) were inserted to hydrate for 10 minutes. 600 of the assay samples were diluted 2-fold or 3-fold to the appropriate assay concentrations, using 1×KB or 10×KB to 30 to 0.021 nM. To immobilize the antigen, recombinant human ROR1-His (Sino Biological, 13968-H08H) was diluted to 1 /ML with 10×KB or Sodium Acetate pH5 buffer. Immobilization was fixed at a threshold of 0.3 nm in the loading step. The association assay was carried out for 3 to 10 minutes, and the dissociation assay was carried out for 20 minutes. According to the Octet program template, the buffer was placed in a new 96-well black microplate according to order. As Baseline1, 200 10×KB or DW was placed. Then 200 each of 1 /mL of the antigen to be loaded, the ROR1-HIS protein, was added. As Baseline2, 200 10×KB or 1×KB was placed. Then to each well 30 to 0.021 nM of the diluted antibody and 200 each of 10×KB buffer or 1×KB corresponding to a reference blank was added. The temperature of the test plate was fixed at 30° C. After all of the samples were introduced, the equipment was started, and after the assay was completed, results were uploaded to the Octet Analysis 90 software, with KD values analyzed through 1:1 fitting. By obtaining KD values through the Octet assay method, it was confirmed that the anti-ROR1 antibody had strong binding potential to ROR1 antigen.

[3] = target: T2, human ROR2 over-expressed on CHO cells (CHO-human ROR2) (human, UniProt Q01974 34-943); assay: flow cytometry on CHO-S cells transiently over-expressing human ROR2, FITC anti-human Fc detection, MFI ratio to 2nd Ab alone
T2 construct: whole, on cells; Negative control; also called family protein human ROR2
T2 sequence (Q01974 34-943): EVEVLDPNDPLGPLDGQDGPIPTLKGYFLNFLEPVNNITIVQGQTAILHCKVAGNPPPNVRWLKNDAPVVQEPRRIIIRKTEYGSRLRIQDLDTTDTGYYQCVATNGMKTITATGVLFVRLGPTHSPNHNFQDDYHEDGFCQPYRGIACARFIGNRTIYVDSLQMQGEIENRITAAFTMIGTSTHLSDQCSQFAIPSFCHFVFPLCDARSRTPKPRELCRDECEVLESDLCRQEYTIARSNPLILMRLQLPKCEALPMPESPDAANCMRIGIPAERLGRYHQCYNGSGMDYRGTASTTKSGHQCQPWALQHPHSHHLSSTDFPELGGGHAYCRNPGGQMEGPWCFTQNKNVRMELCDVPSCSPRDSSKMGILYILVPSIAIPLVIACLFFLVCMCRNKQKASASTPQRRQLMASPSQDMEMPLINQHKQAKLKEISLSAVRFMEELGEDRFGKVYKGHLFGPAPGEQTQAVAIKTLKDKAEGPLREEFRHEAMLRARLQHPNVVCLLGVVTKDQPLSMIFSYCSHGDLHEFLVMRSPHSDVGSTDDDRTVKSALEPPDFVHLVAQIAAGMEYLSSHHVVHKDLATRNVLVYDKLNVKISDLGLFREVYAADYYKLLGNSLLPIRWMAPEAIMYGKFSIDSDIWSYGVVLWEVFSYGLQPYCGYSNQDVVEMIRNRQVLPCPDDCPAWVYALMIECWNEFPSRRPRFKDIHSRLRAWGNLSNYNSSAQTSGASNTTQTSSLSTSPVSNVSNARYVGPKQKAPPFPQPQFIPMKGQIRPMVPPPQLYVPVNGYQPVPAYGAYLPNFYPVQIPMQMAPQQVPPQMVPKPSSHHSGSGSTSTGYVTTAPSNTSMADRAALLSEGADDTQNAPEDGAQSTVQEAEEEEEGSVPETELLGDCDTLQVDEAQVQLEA
Text: For this experiment, using cell lines (FIG. 5 and FIG. 7, respectively) transiently (CHO-human ROR1, CHO-human ROR2, CHO-mouse ROR1) or stably (MC38-human ROR1) transfected with ROR1 gene to achieve artificial over-expression of ROR1 protein, an ROR1-expressing cell line (JeKo-1, Mino) (FIG. 6), a non ROR1-expressing cell line (MCF7) (FIG. 6) and a FACSCalibur (BD Biosciences) device was used to measure the degree to which anti-ROR1 antibody and ROR1 were bound, as follows. […] JeKo-1, Mino, CHO-human ROR1, CHO-mouse ROR1 and MC38-human ROR1 are all cell lines which express human ROR1 or mouse ROR1.
Specifically, after dissociating each cell line and washing in PBS, the number of cells was counted and adjusted to 2×10⁵ cells/200 PBS. Then the respective ROR1 monoclonal antibodies prepared in Embodiment 3 were diluted 5 times from 10 /mL or 10 /mL, then reacted for 1 hour at 4° C. After the reaction, the cells were washed in PBS, then FITC-marked constant region (Fc) specific antibody (Goat anti-human IgG FITC conjugate, Fc specific, Sigma, F9512, concentration 20 mg/ml) was suspended in 2 /1×10⁵ cells/200 PBS and reacted for 1 hour at 4° C. As for identification of the degree of expression of the transiently over-expressed human ROR1, human ROR2 and mouse ROR1, a commercially available FACS analysis antibody (anti-ROR1: R&D Systems, FAB 2000G, anti-ROR2: R&D, FAB20641P) was used. After reacting the cells were washed in PBS and analyzed using a FACSCalibur device. The negative control (2nd Ab) was only treated with FITC-marked constant region (Fc) specific antibody. The shifted readings for the respective experimental groups treated with ROR1 monoclonal antibody were compared against the shifted reading for the control group (MFI Ratio: MFI of anti-ROR1/MFI of 2nd Ab).

[4] = target: T3, recombinant mouse ROR1 protein (Acrobiosystems, RO1-M5221) (mouse, UniProt Q9Z139 30-403); assay: ELISA, wells coated with recombinant mouse ROR1 protein, IgG titrated, HRP anti-Fab detection, OD (450-650nm)
T3 construct: Bought protein; also called mouse ROR1 antigen
T3 sequence (Q9Z139 30-403 limits assumed): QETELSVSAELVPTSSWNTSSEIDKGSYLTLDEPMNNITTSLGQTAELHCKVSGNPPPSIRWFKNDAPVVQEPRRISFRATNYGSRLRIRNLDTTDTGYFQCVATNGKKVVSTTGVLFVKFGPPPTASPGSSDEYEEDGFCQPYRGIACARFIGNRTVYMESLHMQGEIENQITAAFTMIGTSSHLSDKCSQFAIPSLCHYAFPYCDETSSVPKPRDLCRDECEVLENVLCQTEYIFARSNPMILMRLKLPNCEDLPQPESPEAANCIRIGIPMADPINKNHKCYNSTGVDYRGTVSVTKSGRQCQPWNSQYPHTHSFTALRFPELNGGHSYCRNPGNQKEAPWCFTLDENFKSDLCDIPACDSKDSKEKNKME
Experimental: as §1, §2

[5] = target: T4, BCMA-Fc, a recombinant protein where the extracellular domain of human BCMA protein is linked to human Fc (human, UniProt Q02223 1-54); assay: ELISA, wells coated with BCMA-Fc (negative control), monoclonal scFv supernatant, anti-HA HRP detection, OD (450-650nm)
T4 construct: extracellular domain; Negative control in panning and ELISA; also called negative control-Fc
T4 sequence (looked up): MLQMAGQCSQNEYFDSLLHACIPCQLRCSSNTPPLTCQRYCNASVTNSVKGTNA
Experimental: Specifically, 100 ng per well of recombinant human ROR1-Fc prepared in Embodiment 1-1 or FBMA-Fc was placed in a 96-well microtiter plate (Nunc-Immuno Plate, NUNC, USA), which was coated overnight at 4° C. BCMA-Fc is the protein used as a negative control, a recombinant protein where the extracellular domain of human BCMA protein is linked to human Fc. 200 μL each of 3% BSA was placed in each well, and blocked for 2 hours at 37° C.
The monoclonal phage supernatant was prepared by mixing 1:1 with 3% BSA, and 100 μL each of this mixture was loaded into the wells and reacted for 2 hours at 37° C. After washing 5 times with 300 μL PBST, anti-HA HRP binding antibody was added, reacted for 1 hour at 37° C., then washed 5 times with PBST. 100 μL TMB (Tetramethylbenzidine, Sigma, T0440) was added for color development, and then 50 μL 1N H2SO₄ was added to stop the reaction. Absorbance was measured at 450 nm and 650 nm, and clones where the absorbance at 450 nm and 650 nm was […] when coated with 1 /mL ROR1 were screened (FIG. 1)

T1 sequence (Q01973 30-406): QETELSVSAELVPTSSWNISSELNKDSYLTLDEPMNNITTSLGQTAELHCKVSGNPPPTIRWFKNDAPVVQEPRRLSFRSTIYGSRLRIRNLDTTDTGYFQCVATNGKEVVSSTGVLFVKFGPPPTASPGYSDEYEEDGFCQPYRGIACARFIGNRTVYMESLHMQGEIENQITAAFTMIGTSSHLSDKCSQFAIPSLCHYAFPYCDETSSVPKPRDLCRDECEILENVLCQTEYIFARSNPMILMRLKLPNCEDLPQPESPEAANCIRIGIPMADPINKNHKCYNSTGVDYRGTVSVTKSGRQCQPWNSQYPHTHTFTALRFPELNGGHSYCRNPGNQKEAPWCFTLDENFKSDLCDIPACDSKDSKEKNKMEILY

| Binder | binding result [5] | also measured |
| --- | --- | --- |
| anti-ROR1 IgG antibody DG6 (antibody, V domains shown, Full IgG form (human IgG1 constant region, lambda light chain), expressed in CHO-S cells) VH: EVQLLESGGGLVQPGGSLRLSCAASGFTFSDYDMSWVRQAPGKGLEWVSVISPDGGSIYYADSVKGRFTISRDNSKNTLYLQMNSLRAEDTAVYYCARDVVECNMNPCSYDNAMDVWGQGTLVTVSS VL: QSVLTQPPSASGTPGQRVTISCSGSSSNIGSNYVSWYQQLPGTAPKLLIYDDSHRPSGVPDRFSGSKSGTSASLAISGLRSEDEADYYCGAWDDSLSGYVFGGGTKLTVLG | – | EC50 (read off the curve) [1]: ~0.1 nM; Kd [2]: 0.152 nM; koff [2]: 0.000338 s⁻¹; kon [2]: 2.23e+06 M⁻¹ s⁻¹; binding result [3]: no binding; EC50 (read off the curve) [4]: ~0.1 nM |
| anti-ROR1 monoclonal phage antibody AB4 (soluble scFv) (scFv, V domains shown, Tested as soluble scFv in culture supernatant, detected through an HA tag) VH: EVQLLESGGGLVQPGGSLRLSCAASGFTFSSYDMSWVRQAPGKGLEWVSWISPDSGSIYYADSVKGRFTISRDNSKNTLYLQMNSLRAEDTAVYYCARPTGRFDYWGQGTLVTVSS VL: QSVLTQPPSASGTPGQRVTISCSGSSSNIGNNNVNWYQQLPGTAPKLLIYYDNKRPSGVPDRFSGSKSGTSASLAISGLRSEDEADYYCGTWDASLSGYVFGGGTKLTVLG | no binding | – |
| anti-ROR1 monoclonal phage antibody CC9 (soluble scFv) (scFv, V domains shown, Tested as soluble scFv in culture supernatant, detected through an HA tag) VH: EVQLLESGGGLVQPGGSLRLSCAASGFTFSSYDMSWVRQAPGKGLEWVSGISHGSGNKYYADSVKGRFTISRDNSKNTLYLQMNSLRAEDTAVYYCAKRLSLRRRPSYYSDNAMDVWGQGTLVTVSS VL: QSVLTQPPSASGTPGQRVTISCTGSSSNIGNNAVNWYQQLPGTAPKLLIYYDSNRPSGVPDRFSGSKSGTSASLAISGLRSEDEADYYCGAWDDSLSGYVFGGGTKLTVLG | no binding | – |
| anti-ROR1 monoclonal phage antibody BA6 (soluble scFv) (scFv, V domains shown, Tested as soluble scFv in culture supernatant, detected through an HA tag) VH: EVQLLESGGGLVQPGGSLRLSCAASGFTFSNYDMSWVRQAPGKGLEWVSAIYHSGSSKYYADSVKGRFTISRDNSKNTLYLQMNSLRAEDTAVYYCARGGNGAWDTGFDYWGQGTLVTVSS VL: QSVLTQPPSASGTPGQRVTISCSGSSSNIGSNDVSWYQQLPGTAPKLLIYYDNNRPSGVPDRFSGSKSGTSASLAISGLRSEDEADYYCGAWDDSLSGYVFGGGTKLTVLG | no binding | – |
| anti-ROR1 monoclonal phage antibody DG6 (soluble scFv) (scFv, V domains shown, Tested as soluble scFv in culture supernatant, detected through an HA tag) VH: EVQLLESGGGLVQPGGSLRLSCAASGFTFSDYDMSWVRQAPGKGLEWVSVISPDGGSIYYADSVKGRFTISRDNSKNTLYLQMNSLRAEDTAVYYCARDVVECNMNPCSYDNAMDVWGQGTLVTVSS VL: QSVLTQPPSASGTPGQRVTISCSGSSSNIGSNYVSWYQQLPGTAPKLLIYDDSHRPSGVPDRFSGSKSGTSASLAISGLRSEDEADYYCGAWDDSLSGYVFGGGTKLTVLG | no binding | – |
| anti-ROR1 monoclonal phage antibody C2E3 (soluble scFv) (scFv, V domains shown, Tested as soluble scFv in culture supernatant, detected through an HA tag) VH: EVQLLESGGGLVQPGGSLRLSCAASGFTFSNYAMSWVRQAPGKGLEWVSSISHNSGSTYYADSVKGRFTISRDNSKNTLYLQMNSLRAEDTAVYYCAKFISARKSLGRSYSNGMDVWGQGTLVTVSS VL: QSVLTQPPSASGTPGQRVTISCTGSSSNIGSNDVTWYQQLPGTAPKLLIYADSKRPSGVPDRFSGSKSGTSASLAISGLRSEDEADYYCGTWDYSLSGYVFGGGTKLTVLG | no binding | – |
| anti-ROR1 monoclonal phage antibody A2F2 (soluble scFv) (scFv, V domains shown, Tested as soluble scFv in culture supernatant, detected through an HA tag) VH: EVQLLESGGGLVQPGGSLRLSCAASGFTFSDYYMSWVRQAPGKGLEWVSSISPDGSNTYYADSVKGRFTISRDNSKNTLYLQMNSLRAEDTAVYYCAKNLRAFDYWGQGTLVTVSS VL: QSVLTQPPPASGTPGQRVTISCSGSSSNIGSNTVYWYQQLPGTAPKLLIYANSQRPSGVPDRFSGSKSGTSASLAISGLRSEDEADYYCGSWDYSLSGYVFGGGTKLTVLG | no binding | – |
| anti-ROR1 monoclonal phage antibody D2B12 (soluble scFv) (scFv, V domains shown, Tested as soluble scFv in culture supernatant, detected through an HA tag) VH: EVQLLESGGGLVQPGGSLRLSCAASGFTFSNYDMSWVRQAPGKGLEWVSSISPSSGSSIYYADSVKGRFTISRDNSKNTLYLQMNSLRAEDTAVYYCAKAPGWCQAPSCYYDNAMDVWGQGTLVTVSS VL: QSVLTQPPSASGTPGQRVTISCSGSSSNIGNNDVSWYQQLPGTAPKLLIYDDSQRPSGVPDRFSGSKSGTSASLAISGLRSEDEADYYCGAWDDSLSGYVFGGGTKLTVLG | no binding | – |
| anti-ROR1 monoclonal phage antibody A2F3 (soluble scFv) (scFv, V domains shown, Tested as soluble scFv in culture supernatant, detected through an HA tag) VH: EVQLLESGGGLVQPGGSLRLSCAASGFTFSSYDMSWVRQAPGKGLEWVSWISPGGGSKYYADSVKGRFTISRDNSKNTLYLQMNSLRAEDTAVYYCARVNGRFDYWGQGTLVTVSS VL: QSVLTQPPSASGTPGQRVTISCSGSSSNIGNNNVSWYQQLPGTAPKLLIYADSHRPSGVPDRFSGSKSGTSASLAISGLRSEDEADYYCATWDYSLSGYVFGGGTKLTVLG | no binding | – |
